The target in assay [1] is tES-HRPc, truncated horseradish peroxidase fused to the C-terminus of a histidine-tagged tES subunit (Archaeoglobus fulgidus | horseradish) (UniProt O29424). Put plainly: pull-down + SEC; tES(+) and His-tagged tES-POI coexpressed in E. coli BL21(DE3); Ni-NTA by the His tag of the fusion subunit, then SEC (25 mM Tris-HCl, pH 8); ratio by gel densitometry of purified fractions.

For assay [2], the target named is tES-rLuc, Renilla luciferase fused to the C-terminus of a histidine-tagged tES subunit (Archaeoglobus fulgidus | Renilla) (UniProt O29424). The description is as above.
For assay [3], the target named is tES-GFPuv, GFPuv fused to the C-terminus of a histidine-tagged tES subunit (Archaeoglobus fulgidus | not stated) (UniProt O29424). Described as above.
For assay [4] the target is unchanged.

With “tES(+) thermostable exoshell subunit, net positive cavity (from UniProt O29424 1-164)”, the results for the stoichiometry N (tES subunits per tES-POI fusion subunit) in assay [1], in assay [2] and in assay [3] were 19, 20 and 32, respectively.
In the case of “tES(+)F116H, pH-titratable exoshell subunit (from UniProt O29424 1-164)”, the GFPuv fluorescence after in vitro folding; molar ratios of tES(+)F116H subunits to tES-GFPuv from 0:1 to 90:1, highest at 90:1 in assay [4] came out at 100 fold.

Source of the values: publication PMC5682286.
